Reference: article PMC6482001 (eLife, 2019)
Like-named read-outs stand apart in the source and are kept apart here. One block for each molecule: values may come before it.

Legend:
GltTk [1] = biological target: T1, GltTk (Thermococcus kodakarensis, UniProt Q5JID0); experiment: isothermal titration calorimetry; type: binding
T1 construct: gene TK0986; C-terminally His8-tagged (pBAD24-GltTk-His8), expressed in E. coli MC1061, purified in decylmaltoside-type detergent (DM) or reconstituted in proteoliposomes; homotrimer
Text: (§1) isothermal titration calorimetry on GltTk

GltTk [2] = biological target: T1, GltTk; experiment: isothermal titration calorimetry; details: 300 mM NaCl, 100 mM KCl, pH 8.0, 25 °C, 0.15% DM; Na+-coupled binding; cited from earlier work
Text: as §1

[3] = biological target: glutamate transporter homolog GltTk from Thermococcus kodakarensis (Thermococcus kodakarensis) (UniProt Q5JID0); experiment: crystal structure; GltTk with D-aspartate, 2.8 Å; hanging drop vapour diffusion at 5°C, 300 mM NaCl, 300 µM D-aspartate, protein 7 mg/ml in 10 mM Hepes KOH pH 8.0, 100 mM KCl, 0.15% DM; outward-oriented occluded state
purified protein [4] = substrate: N[C@@H](CC(=O)O)C(=O)O; experiment: purified protein; details: 100 mM NaCl outside, pH 7.5, 3 µM valinomycin, labelled compound
purified protein [5] = substrate: N[C@H](CC(=O)O)C(=O)O; experiment: purified protein; details: 100 mM NaCl outside, pH 7.5, 3 µM valinomycin, labelled compound

Kd (GltTk [1]): 470 ± 170 nM
Molecule: N[C@H](CC(=O)O)C(=O)O [D-aspartate]

stoichiometry N [3]: 3
Molecule: glutamate transporter homolog GltTk from Thermococcus kodakarensis (from UniProt Q5JID0 1-430) (natural protein)

Second part, the molecule before the results:

Molecule: N[C@@H](CC(=O)O)C(=O)O [L-aspartate]
Kd (GltTk [2]): 120 ± 40 nM

B1: GltTk (Thermococcus kodakarensis KOD1) (protein)
chain: MGKSLLRRYLDYPVLWKILWGLVLGAVFGLIAGHFGYAGAVKTYIKPFGDLFVRLLKMLVMPIVLASLVVGAASISPARLGRVGVKIVVYYLATSAMAVFFGLIVGRLFNVGANVNLGSGTGKAIEAQPPSLVQTLLNIVPTNPFASLAKGEVLPVIFFAIILGIAITYLMNRNEERVRKSAETLLRVFDGLAEAMYLIVGGVMQYAPIGVFALIAYVMAEQGVRVVGPLAKVVGAVYTGLFLQIVITYFILLKVFGIDPIKFIRKAKDAMITAFVTRSSSGTLPVTMRVAEEEMGVDKGIFSFTLPLGATINMDGTALYQGVTVLFVANAIGHPLTLGQQLVVVLTAVLASIGTAGVPGAGAIMLAMVLQSVGLDLTPGSPVALAYAMILGIDAILDMGRTMVNVTGDLAGTVIVAKTEKELDESKWIS
Km (purified protein [4]): 0.75 ± 0.17 µM
Km (purified protein [5]): 1.1 ± 0.11 µM
